From patent US10927188B2, “Method for producing short-chain peptide-immobilized carrier, and short-chain peptide-immobilized carrier” (FUJIFILM Corporation, priority 2015, dated 2021)
Where no end group is shown, it is not given here.

Test: Percentage content of secondary structure by CD (circular dichroism) spectrum
Assay type: physicochemical
Conditions: for Percentage content of secondary structure In HEPES: free peptide in HEPES buffer solution (10 mM HEPES-HCl, 150 mM NaCl, pH 7.4, 25° C.); for Percentage content of secondary structure In MeOH: free peptide in methanol (purity 99.5% by mass)

| Substance | Percentage content of secondary structure In HEPES [%] | Percentage content of secondary structure In MeOH [%] |
| --- | --- | --- |
| Ac-KAAKEQQKAFYKILH [Short-chain peptide 5] | 36 | 92 |
| KKKEQQNAFYEILHKKK (SIMILAR (4)..(14) SEQ ID No.2 EQQNAFYEILH; SIMILAR (4)..(10) SEQ ID No.1 EQQNAFY) [Short-chain peptide 3] | 33 | 100 |
| KKKKEQQNAFYEILHKKKK (SIMILAR (5)..(11) SEQ ID No.1 EQQNAFY; SIMILAR (5)..(15) SEQ ID No.2 EQQNAFYEILH) [Short-chain peptide 4] | 32 | 100 |
| KKKKKEQQNAFYEILH (SIMILAR (6)..(12) SEQ ID No.1 EQQNAFY; SIMILAR (6)..(16) SEQ ID No.2 EQQNAFYEILH) [Short-chain peptide 2] | 30 | 84 |
| KKRKEQQKKFYKKLHK [Short-chain peptide 8] | 16 | 88 |
| KKRKEQQNAFYEILHKRRKK [Short-chain peptide 7] | 35 | 100 |
| KKRREQQNAFYEILHKRRKK [Short-chain peptide 6] | 35 | 100 |
